Biological target: McTnI_(29–211), mouse cardiac TnI with the NH2-terminal extension removed (mouse, UniProt P48787 29-211)
Experiment: ELISA

McTnI_(29–211), mouse cardiac TnI with the NH2-terminal extension removed, sequence (P48787 29-211): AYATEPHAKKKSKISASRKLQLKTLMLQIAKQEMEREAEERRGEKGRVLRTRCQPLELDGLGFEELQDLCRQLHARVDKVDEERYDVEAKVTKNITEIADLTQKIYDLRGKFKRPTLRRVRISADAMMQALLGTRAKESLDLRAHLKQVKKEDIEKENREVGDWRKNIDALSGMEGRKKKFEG

binding result: binds
B1: chicken fast TnC (natural protein)
chain: not shown

From publication PMC3168705 (The FEBS journal, 2011)
